Earlier results in publication PMC6690345.

Target: integrin αIIbβ3 (Homo sapiens) (UniProt P08514)
Assay: SPR

Kd	Substance
21 µM	ERp5 (from UniProt Q15084)
1 µM	PDI (from UniProt P07237)
